Patent US20090053761A1, “Polypeptide Mutagenesis Method” (University College Cardiff Consultants Ltd., priority 2005, published 2009)

System: E. coli
Assay: TEM-1 β-lactamase activity in vivo: ampicillin MIC of BLA DEL library colonies
Type: cell-based, Escherichia coli DH5α
Conditions: minimum ampicillin concentration preventing growth of E. coli DH5α carrying the bla variant in pNOM; LB agar, 37° C., 16 hr
Experimental: The MuDel-inserted pNOM plasmids were isolated from each of the 22 colonies and equal amounts of each plasmid were pooled and subjected to restriction digestion with MlyI followed by agarose gel electrophoresis. The band corresponding to the linear pNOM minus MuDel was isolated and purified after agarose gel electrophoresis. Intramolecular ligation was performed using T4 DNA ligase and approximately 10 ng of linear pNOM (reaction conditions described above). The reaction was left at 25° C. for 10 min followed by 10 hr at 16° C. E. coli DH5α cells were transformed by electroporation with 1 μl of the ligation mixture. 500 μl of SOC medium was added to the cells immediately after electroporation and the cells were incubated at 37° C. for 1 hr. 50 μl and 500 μl of the recovering transformed cell cultures were plated on LB agar plates containing 15 μg/ml ampicillin. The plates were left overnight at 37° C. and 94 BLA^DEL library and two pNOM-containing colonies were selected and transferred to 96 deep-well culture plates containing 200 μl LB medium and 15 μg/ml ampicillin. The cells were grown for 16 hr at 37° C. with vigorous shaking. Sterile glycerol was added to 10% (v/v) for storage at −80° C.
The TEM-1 β-lactamase activity of each colony was measured in vivo by determining the minimum inhibitory concentration (MIC) of ampicillin that prevents E. coli growth. […]

B1: Wild-type (pNOM): wild-type TEM-1 β-lactamase encoded by the bla gene of pNOM, control (protein, UniProt P62593 24-286, looked up)
Beta-lactamase TEM: HPETLVKVKDAEDQLGARVGYIELDLNSGKILESFRPEERFPMMSTFKVLLCGAVLSRVDAGQEQLGRRIHYSQNDLVEYSPVTEKHLTDGMTVRELCSAAITMSDNTAANLLLTTIGGPKELTAFLHNMGDHVTRLDRWEPELNEAIPNDERDTTMPAAMATTLRKLLTGELLTLASRQQLIDWMEADKVAGPLLRSALPAGWFIADKSGAGERGSRGIIAALGPDGKPSRIVVIYTTGSQATMDERNRQIAEIGASLIKHW
- Amp MIC: > 10000 µg/mL
